Data: patent US20050277575

Biological target: T1, Glu-plasminogen (Calbiochem), P00747
T1 chain: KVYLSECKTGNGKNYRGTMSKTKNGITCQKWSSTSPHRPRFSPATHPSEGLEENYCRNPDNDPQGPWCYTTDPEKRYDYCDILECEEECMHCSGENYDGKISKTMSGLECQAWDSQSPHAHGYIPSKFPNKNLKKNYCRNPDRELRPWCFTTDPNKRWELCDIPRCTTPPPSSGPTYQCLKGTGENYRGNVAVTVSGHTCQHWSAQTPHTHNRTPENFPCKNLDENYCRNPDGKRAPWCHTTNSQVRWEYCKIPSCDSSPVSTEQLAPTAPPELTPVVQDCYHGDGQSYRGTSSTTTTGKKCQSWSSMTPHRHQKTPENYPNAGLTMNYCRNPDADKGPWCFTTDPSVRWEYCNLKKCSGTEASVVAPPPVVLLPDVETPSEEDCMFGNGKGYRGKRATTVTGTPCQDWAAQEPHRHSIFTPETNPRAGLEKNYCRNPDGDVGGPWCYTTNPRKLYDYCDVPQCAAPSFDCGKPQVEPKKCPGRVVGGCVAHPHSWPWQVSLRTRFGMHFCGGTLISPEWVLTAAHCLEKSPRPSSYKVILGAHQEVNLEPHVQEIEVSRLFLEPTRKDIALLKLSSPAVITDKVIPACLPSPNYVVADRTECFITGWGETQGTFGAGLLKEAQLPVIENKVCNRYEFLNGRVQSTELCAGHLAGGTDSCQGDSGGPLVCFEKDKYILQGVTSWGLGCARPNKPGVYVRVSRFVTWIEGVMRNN

B1: tissue type plasminogen activator (t-PA, Calbiochem) (protein)
chain: SYQVICRDEKTQMIYQQHQSWLRPVLRSNRVEYCWCNSGRAQCHSVPVKSCSEPRCFNGGTCQQALYFSDFVCQCPEGFAGKCCEIDTRATCYEDQGISYRGTWSTAESGAECTNWNSSALAQKPYSGRRPDAIRLGLGNHNYCRNPDRDSKPWCYVFKAGKYSSEFCSTPACSEGNSDCYFGNGSAYRGTHSLTESGASCLPWNSMILIGKVYTAQNPSAQALGLGKHNYCRNPDGDAKPWCHVLKNRRLTWEYCDVPSCSTCGLRQYSQPQFRIKGGLFADIASHPWQAAIFAKHRRSPGERFLCGGILISSCWILSAAHCFQERFPPHHLTVILGRTYRVVPGEEEQKFEVEKYIVHKEFDDDTYDNDIALLQLKSDSSRCAQESSVVRTVCLPPADLQLPDWTECELSGYGKHEALSPFYSERLKEAHVRLYPSSRCTSQHLLNRTVTDNMLCAGDTRSGGPQANLHDACQGDSGGPLVCLNDGRMTLVGIISWGLGCGQKDVPGVYTKVTNYLDWIRDNMRP
Km of t-PA-mediated plasminogen conversion in the presence of S100A4 (EGTA): 0.059 µM
Km of t-PA-mediated plasminogen conversion, basal reaction (EGTA): 0.429 µM
